Where a chain is given by its changes, count along the chain named. Numbers in names are those of the source. Where “and” joins values, the source holds several entries; their conditions need not be identical. Equal values may be shown once.
B1: Cas1 from Escherichia coli K12 (MG1655), untagged, purified (enzyme, E. coli K12 (MG1655))
chain: MTWLPLNPIPLKDRVSMIFLQYGQIDVIDGAFVLIDKTGIRTHIPVGSVACIMLEPGTRVSHAAVRLAAQVGTLLVWVGEAGVRVYASGQPGGARSDKLLYQAKLALDEDLRLKVVRKMFELRFGEPAPARRSVEQLRGIEGSRVRATYALLAKQYGVTWNGRRYDPKDWEKGDTINQCISAATSCLYGVTEAAILAAGYAPAIGFVHTGKPLSFVYDIADIIKFDTVVPKAFEIARRNPGEPDREVRLACRDIFRSSKTLAKLIPLIEDVLAAGEIQPPAPPEDAQPVAIPLPVSLGDAGHRSS
B2: Cas1 R252E, purified (enzyme, E. coli K12 (MG1655))
chain: B1 chain with R252E
B3: Cas2 from Escherichia coli K12 (MG1655), untagged, purified (enzyme, E. coli K12 (MG1655))
chain: MSMLVVVTENVPPRLRGRLAIWLLEVRAGVYVGDVSAKIREMIWEQIAGLAEEGNVVMAWATNTETGFEFQTFGLNRRTPVDLDGLRLVSFLPV

How the values were obtained:
crystal structure = biological target: the molecule itself; assay: crystal structure
[1] = biological target: B3; assay: ITC
[2] = biological target: B3; assay: AUC
SEC = biological target: the molecule itself; assay: SEC
[3] = biological target: B1; assay: ITC

Binder | stoichiometry N (crystal structure) | KD of a single run [1] | stoichiometry N [1] | stoichiometry N [2] [Cas1 dimer per Cas2 dimer] | stoichiometry N (SEC) | Kd [3] [nM]
B1 | 2 | 308 nM and 212 nM and 351 nM | ~1.5 Cas1 to Cas2 | 1 |  | 
B2 |  |  |  |  | 2 | 
B3 | 2 |  |  |  |  | ~290

From PMC4075942 (Nature structural & molecular biology, 2014)
